Results reported in paper PMC2187331.
Like-named read-outs stand apart in the source and are kept apart here. Blank lines part the entries; values can stand above or below the substance they belong to.

Legend:
Experiment in all cases: rosette formation
[1] = molecular target: C receptor type 1, the C3b receptor (human (endogenous in erythrocytes, monocytes and neutrophils)) (UniProt P17927)
[2] = molecular target: C receptor type 2, the C3d receptor (human (endogenous in Raji)) (UniProt P20023)
Chain of C receptor type 2, the C3d receptor (human (endogenous in Raji)) (P20023 21-1033): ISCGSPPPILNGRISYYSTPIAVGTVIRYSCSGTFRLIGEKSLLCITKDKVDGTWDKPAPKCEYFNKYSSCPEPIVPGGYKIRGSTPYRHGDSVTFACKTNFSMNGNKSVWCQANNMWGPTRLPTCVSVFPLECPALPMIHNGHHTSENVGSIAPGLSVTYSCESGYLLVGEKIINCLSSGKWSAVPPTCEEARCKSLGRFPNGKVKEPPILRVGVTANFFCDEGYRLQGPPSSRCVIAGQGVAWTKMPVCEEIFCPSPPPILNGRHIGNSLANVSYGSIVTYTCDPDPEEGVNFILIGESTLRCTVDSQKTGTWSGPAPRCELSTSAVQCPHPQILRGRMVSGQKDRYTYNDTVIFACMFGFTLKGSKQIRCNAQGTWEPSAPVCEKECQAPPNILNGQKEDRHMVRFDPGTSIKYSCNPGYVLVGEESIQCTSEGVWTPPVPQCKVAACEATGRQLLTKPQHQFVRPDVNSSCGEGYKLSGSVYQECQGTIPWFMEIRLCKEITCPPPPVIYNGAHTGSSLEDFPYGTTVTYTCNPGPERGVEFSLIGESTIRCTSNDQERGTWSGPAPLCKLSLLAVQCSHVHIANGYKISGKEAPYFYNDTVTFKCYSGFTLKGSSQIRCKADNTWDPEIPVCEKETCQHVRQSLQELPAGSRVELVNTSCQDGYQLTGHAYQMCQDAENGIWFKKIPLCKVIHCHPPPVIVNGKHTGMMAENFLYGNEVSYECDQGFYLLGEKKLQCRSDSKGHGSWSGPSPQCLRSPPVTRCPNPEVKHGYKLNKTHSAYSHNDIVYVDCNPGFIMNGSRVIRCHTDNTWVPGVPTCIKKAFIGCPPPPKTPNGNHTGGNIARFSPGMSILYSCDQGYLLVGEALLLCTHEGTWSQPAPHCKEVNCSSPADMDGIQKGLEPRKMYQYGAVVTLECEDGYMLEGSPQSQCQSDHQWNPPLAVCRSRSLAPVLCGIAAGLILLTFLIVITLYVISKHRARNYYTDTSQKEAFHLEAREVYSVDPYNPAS

[3] = molecular target: C receptor type 1, the C3b receptor (human (endogenous in erythrocytes, monocytes and neutrophils)) (UniProt P17927); remark: listed apart in the source
[4] = molecular target: C receptor type 1, the C3b receptor (human (endogenous in erythrocytes, monocytes and neutrophils)) (UniProt P17927); remark: listed apart in the source
[5] = molecular target: C receptor type 3, iC3b receptor (human (endogenous in monocytes and neutrophils)) (UniProt P11215)
[6] = molecular target: C receptor type 1, the C3b receptor (human (endogenous in erythrocytes, monocytes and neutrophils)) (UniProt P17927); remark: listed apart in the source
[7] = molecular target: C receptor type 3, iC3b receptor (human (endogenous in monocytes and neutrophils)) (UniProt P11215); remark: listed apart in the source

Chain of C receptor type 1, the C3b receptor (human (endogenous in erythrocytes, monocytes and neutrophils)) (P17927 42-2039): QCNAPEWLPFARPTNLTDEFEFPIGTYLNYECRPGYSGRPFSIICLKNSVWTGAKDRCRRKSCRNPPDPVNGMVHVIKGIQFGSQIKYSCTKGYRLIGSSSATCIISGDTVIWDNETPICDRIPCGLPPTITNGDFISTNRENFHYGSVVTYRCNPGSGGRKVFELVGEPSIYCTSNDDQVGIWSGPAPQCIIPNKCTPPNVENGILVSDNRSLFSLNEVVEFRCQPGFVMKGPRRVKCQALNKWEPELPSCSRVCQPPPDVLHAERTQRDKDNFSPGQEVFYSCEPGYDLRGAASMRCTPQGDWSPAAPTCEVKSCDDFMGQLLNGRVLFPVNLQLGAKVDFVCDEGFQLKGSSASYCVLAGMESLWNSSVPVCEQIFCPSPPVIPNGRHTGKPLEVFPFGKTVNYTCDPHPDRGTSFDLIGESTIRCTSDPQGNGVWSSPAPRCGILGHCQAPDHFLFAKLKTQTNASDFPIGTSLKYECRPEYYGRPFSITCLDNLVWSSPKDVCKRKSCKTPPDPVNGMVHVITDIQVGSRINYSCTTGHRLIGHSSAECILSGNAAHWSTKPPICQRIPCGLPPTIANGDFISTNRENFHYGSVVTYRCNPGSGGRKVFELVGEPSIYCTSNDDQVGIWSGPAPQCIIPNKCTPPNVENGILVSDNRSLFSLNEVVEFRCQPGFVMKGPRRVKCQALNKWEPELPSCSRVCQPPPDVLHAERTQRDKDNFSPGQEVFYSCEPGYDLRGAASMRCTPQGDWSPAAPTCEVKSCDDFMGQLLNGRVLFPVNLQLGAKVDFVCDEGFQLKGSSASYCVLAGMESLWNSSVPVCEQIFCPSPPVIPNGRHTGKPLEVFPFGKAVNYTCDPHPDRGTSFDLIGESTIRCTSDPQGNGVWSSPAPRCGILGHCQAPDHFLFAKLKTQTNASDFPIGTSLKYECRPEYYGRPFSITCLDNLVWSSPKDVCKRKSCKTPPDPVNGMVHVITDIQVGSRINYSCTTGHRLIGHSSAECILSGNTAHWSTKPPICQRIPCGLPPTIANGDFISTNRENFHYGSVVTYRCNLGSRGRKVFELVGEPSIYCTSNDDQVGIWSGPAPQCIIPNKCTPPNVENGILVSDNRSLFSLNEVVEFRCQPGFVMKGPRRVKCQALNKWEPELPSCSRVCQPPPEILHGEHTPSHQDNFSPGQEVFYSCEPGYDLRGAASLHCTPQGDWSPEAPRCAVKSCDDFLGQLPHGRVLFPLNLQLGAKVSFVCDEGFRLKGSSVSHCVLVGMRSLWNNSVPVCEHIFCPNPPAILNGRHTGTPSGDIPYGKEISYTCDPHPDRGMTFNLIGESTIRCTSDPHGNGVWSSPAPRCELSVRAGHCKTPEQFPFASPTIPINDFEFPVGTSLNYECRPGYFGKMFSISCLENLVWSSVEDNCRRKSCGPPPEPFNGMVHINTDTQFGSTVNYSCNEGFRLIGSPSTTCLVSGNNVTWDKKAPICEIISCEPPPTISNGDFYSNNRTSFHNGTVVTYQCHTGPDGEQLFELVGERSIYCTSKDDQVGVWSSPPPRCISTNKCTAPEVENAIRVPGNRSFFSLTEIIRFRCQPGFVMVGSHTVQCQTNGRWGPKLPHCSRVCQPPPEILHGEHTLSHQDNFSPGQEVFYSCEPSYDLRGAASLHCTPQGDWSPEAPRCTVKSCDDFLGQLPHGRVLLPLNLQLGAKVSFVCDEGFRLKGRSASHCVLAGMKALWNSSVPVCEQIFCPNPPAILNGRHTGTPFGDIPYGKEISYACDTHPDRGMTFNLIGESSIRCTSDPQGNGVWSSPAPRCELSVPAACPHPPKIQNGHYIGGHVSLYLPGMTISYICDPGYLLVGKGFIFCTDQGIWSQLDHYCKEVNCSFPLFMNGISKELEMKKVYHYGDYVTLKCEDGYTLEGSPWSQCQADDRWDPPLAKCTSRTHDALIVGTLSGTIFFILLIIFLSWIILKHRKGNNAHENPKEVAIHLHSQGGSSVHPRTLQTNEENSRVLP
Chain of C3c (P01024 23-1663): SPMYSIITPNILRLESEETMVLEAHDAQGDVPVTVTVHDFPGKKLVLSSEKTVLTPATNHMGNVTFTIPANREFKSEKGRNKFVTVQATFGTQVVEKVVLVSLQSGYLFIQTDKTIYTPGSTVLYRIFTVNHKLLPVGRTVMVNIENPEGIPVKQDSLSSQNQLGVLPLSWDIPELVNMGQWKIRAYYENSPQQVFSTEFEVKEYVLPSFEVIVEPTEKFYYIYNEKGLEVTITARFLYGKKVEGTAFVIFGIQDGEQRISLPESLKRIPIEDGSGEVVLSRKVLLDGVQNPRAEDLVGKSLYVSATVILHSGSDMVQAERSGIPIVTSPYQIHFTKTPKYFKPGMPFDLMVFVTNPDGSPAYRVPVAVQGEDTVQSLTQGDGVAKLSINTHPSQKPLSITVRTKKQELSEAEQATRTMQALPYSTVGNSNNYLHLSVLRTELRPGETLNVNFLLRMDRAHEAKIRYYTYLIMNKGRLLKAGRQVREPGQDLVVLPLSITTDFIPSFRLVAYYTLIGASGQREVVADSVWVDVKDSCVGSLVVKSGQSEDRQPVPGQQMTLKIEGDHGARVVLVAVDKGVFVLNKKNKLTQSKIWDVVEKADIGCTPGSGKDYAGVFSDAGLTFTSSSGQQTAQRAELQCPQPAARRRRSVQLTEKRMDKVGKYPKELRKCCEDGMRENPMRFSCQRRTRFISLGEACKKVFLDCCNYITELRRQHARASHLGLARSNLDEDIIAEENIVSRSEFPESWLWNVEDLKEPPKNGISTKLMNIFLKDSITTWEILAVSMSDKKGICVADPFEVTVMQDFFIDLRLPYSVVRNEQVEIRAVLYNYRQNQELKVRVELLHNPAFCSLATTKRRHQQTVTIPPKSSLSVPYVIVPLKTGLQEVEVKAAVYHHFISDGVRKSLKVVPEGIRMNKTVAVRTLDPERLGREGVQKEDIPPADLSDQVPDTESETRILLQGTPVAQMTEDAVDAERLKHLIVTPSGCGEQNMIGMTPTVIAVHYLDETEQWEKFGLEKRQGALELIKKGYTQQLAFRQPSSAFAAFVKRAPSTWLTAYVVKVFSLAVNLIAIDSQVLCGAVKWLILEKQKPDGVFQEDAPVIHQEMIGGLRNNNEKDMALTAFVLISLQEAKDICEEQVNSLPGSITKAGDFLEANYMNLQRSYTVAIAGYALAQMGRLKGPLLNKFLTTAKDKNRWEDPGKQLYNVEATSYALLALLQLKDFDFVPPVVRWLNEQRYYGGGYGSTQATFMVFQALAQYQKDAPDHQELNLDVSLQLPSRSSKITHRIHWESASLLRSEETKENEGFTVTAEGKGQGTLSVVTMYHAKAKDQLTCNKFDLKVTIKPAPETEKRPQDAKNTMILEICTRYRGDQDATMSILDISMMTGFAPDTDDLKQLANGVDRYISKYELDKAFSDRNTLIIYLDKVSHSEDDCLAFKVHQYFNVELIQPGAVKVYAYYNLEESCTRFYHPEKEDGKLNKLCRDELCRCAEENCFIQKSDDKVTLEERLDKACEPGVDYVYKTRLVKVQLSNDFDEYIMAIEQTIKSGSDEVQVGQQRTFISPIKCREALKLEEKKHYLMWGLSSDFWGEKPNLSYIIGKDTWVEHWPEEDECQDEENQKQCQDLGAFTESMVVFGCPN

- % rosette formation (C3c microspheres, erythrocytes, buffer) [1]: 72%
- % rosette formation (C3c microspheres, monocytes, buffer) [1]: 80%
Substance: C3c (from UniProt P01024 23-667; P01024 749-954; P01024 1321-1663) (domain or fragment)

- % rosette formation (C3d,g microspheres, Raji cells, buffer) [2]: 99%
- % rosette formation (Raji cells, 6.9 x 10^4 C3d,g per E, buffer) [2]: 99%
Substance: C3d,g (from UniProt P01024 1002-1303) (domain or fragment)

- % rosette formation (erythrocytes, 14 x 10^3 iC3b per E) [3]: 10%
- % rosette formation (erythrocytes, 37 x 10^3 iC3b per E) [3]: 22%
- % rosette formation (erythrocytes, 65 x 10^3 iC3b per E) [3]: 32%
- % rosette formation (monocytes treated with anti-Mac-1, 14 x 10^3 iC3b per E) [3]: 13%
- % rosette formation (monocytes treated with anti-Mac-1, 65 x 10^3 iC3b per E) [3]: 81%
- % rosette formation (monocytes, 14 x 10^3 iC3b per E) [3]: 18%
- % rosette formation (monocytes, 65 x 10^3 iC3b per E) [3]: 85%
- % rosette formation (neutrophils treated with anti-Mac-1, 14 x 10^3 iC3b per E) [3]: 9%
- % rosette formation (neutrophils treated with anti-Mac-1, 65 x 10^3 iC3b per E) [3]: 86%
- % rosette formation (neutrophils, 14 x 10^3 iC3b per E) [3]: 11%
- % rosette formation (neutrophils, 37 x 10^3 iC3b per E) [3]: 84%
- % rosette formation (neutrophils, 65 x 10^3 iC3b per E) [3]: 88%
- % rosette formation (erythrocytes, 37 x 10^3 iC3b per E) [4]: 5%
- % rosette formation (erythrocytes, 65 x 10^3 iC3b per E) [4]: 8%
- % rosette formation (monocytes treated with anti-Mac-1, 14 x 10^3 iC3b per E) [4]: 6%
- % rosette formation (monocytes treated with anti-Mac-1, 65 x 10^3 iC3b per E) [4]: 74%
- % rosette formation (monocytes, 14 x 10^3 iC3b per E) [4]: 8%
- % rosette formation (monocytes, 65 x 10^3 iC3b per E) [4]: 77%
- % rosette formation (neutrophils treated with anti-Mac-1, 14 x 10^3 iC3b per E) [4]: 3%
- % rosette formation (neutrophils treated with anti-Mac-1, 65 x 10^3 iC3b per E) [4]: 93%
- % rosette formation (neutrophils, 14 x 10^3 iC3b per E) [4]: 2%
- % rosette formation (neutrophils, 37 x 10^3 iC3b per E) [4]: 78%
- % rosette formation (neutrophils, 65 x 10^3 iC3b per E) [4]: 97%
- % rosette formation (erythrocytes, 14 x 10^3 iC3b per E) [1]: 21%
- % rosette formation (erythrocytes, 37 x 10^3 iC3b per E) [1]: 39%
- % rosette formation (erythrocytes, 65 x 10^3 iC3b per E) [1]: 60%
- % rosette formation (iC3b microspheres, erythrocytes, buffer) [1]: 75%
- % rosette formation (iC3b microspheres, monocytes, buffer) [1]: 96%
- % rosette formation (monocytes treated with anti-Mac-1, 14 x 10^3 iC3b per E) [1]: 20%
- % rosette formation (monocytes treated with anti-Mac-1, 65 x 10^3 iC3b per E) [1]: 92%
- % rosette formation (neutrophils treated with anti-Mac-1, 14 x 10^3 iC3b per E) [1]: 13%
- % rosette formation (neutrophils treated with anti-Mac-1, 65 x 10^3 iC3b per E) [1]: 100%
- % rosette formation (anti-CR1-treated monocytes, 1.4 x 10^4 iC3b per E, BDVA) [5]: 84%
- % rosette formation (anti-CR1-treated monocytes, 7.9 x 10^3 iC3b per E, BDVA) [5]: 44%
- % rosette formation (monocytes treated with anti-CR1, 14 x 10^3 iC3b per E) [5]: 95%
- % rosette formation (monocytes treated with anti-CR1, 65 x 10^3 iC3b per E) [5]: 94%
- % rosette formation (monocytes, 7.9 x 10^3 iC3b per E) [5]: 86%
- % rosette formation (neutrophils treated with anti-CR1, 14 x 10^3 iC3b per E) [5]: 100%
- % rosette formation (neutrophils treated with anti-CR1, 65 x 10^3 iC3b per E) [5]: 100%
- % rosette formation (iC3b microspheres, Raji cells, buffer) [2]: 98%
- % rosette formation (erythrocytes, 37 x 10^3 iC3b per E) [6]: 15%
- % rosette formation (erythrocytes, 65 x 10^3 iC3b per E) [6]: 22%
- % rosette formation (monocytes treated with anti-Mac-1, 14 x 10^3 iC3b per E) [6]: 5%
- % rosette formation (monocytes treated with anti-Mac-1, 65 x 10^3 iC3b per E) [6]: 75%
- % rosette formation (neutrophils treated with anti-Mac-1, 14 x 10^3 iC3b per E) [6]: 4%
- % rosette formation (neutrophils treated with anti-Mac-1, 65 x 10^3 iC3b per E) [6]: 95%
- % rosette formation (monocytes treated with anti-CR1, 14 x 10^3 iC3b per E) [7]: 74%
- % rosette formation (monocytes treated with anti-CR1, 65 x 10^3 iC3b per E) [7]: 85%
- % rosette formation (monocytes, 7.9 x 10^3 iC3b per E) [7]: 59%
- % rosette formation (neutrophils treated with anti-CR1, 14 x 10^3 iC3b per E) [7]: 79%
- % rosette formation (neutrophils treated with anti-CR1, 65 x 10^3 iC3b per E) [7]: 92%
Substance: iC3b (inactivated C3b) (from UniProt P01024 23-667; P01024 749-1663; P01024 749-1663) (domain or fragment)
